In article PMC4158700:

Experiments:
[1] = biological target: factor XIa with Ile183, Arg184 and Asp185 replaced with alanine (fXIa-Ala183-185) (human) (UniProt P03951); experiment: numerical fitting of full progress curves of fIX cleavage
[2] = biological target: factor XIa with Arg184 replaced with Gly (fXIa-Gly184) (human) (UniProt P03951); experiment: as above
[3] = biological target: factor XIa with Arg184 replaced with Gly (fXIa-Gly184) (human) (UniProt P03951); experiment: inhibition of chromogenic substrate
[4] = biological target: recombinant wild type factor XIa (fXIaWT) (human) (UniProt P03951); experiment: inhibition of chromogenic substrate
[5] = biological target: factor XIa with Ile183, Arg184 and Asp185 replaced with alanine (fXIa-Ala183-185) (human) (UniProt P03951)
[6] = biological target: factor XIa with Arg184 replaced with Gly (fXIa-Gly184) (human) (UniProt P03951)
[7] = biological target: recombinant factor XI zymogen with Arg184 replaced with Gly (fXI-Gly184) (human); experiment: non-reducing SDS-PAGE
[8] = biological target: plasma fXIa with the active site irreversibly blocked by FPR-CMK (UniProt P03951); experiment: SPR
[9] = biological target: recombinant wild type factor XI zymogen (fXIWT) (human); experiment: non-reducing SDS-PAGE

Q: With “factor IXaβ (fIXaβ), fIX cleaved at Arg145-Ala146 and Arg180-Val181 (enzyme)” as the substance, how does the Ki [1] read?
A: The Ki was 290 nM.

Q: What about the Ki [2] of the same substance?
A: The Ki was 500 nM.

Q: What about the Ki [3] of the same substance?
A: Its Ki is 190 nM.

Q: What about the Ki [4] of the same substance?
A: Its Ki is 90 nM.

Q: “factor IXα (fIXα), fIX cleaved at the Arg145-Ala146 bond (natural protein)” was tested. Which Km2 for cleavage after Arg180 (KinTek fit of progress curves) [5] did it give?
A: The Km2 for cleavage after Arg180 (KinTek fit of progress curves) was 3 µM.

Q: What about the Km2 for cleavage after Arg180 (KinTek fit of progress curves) [6] of the same substance?
A: The Km2 for cleavage after Arg180 (KinTek fit of progress curves) was 0.2 µM.

Q: And the Ki1 (k-3/k3, fIXα released after the cleavage at Arg145) [1]?
A: The Ki1 (k-3/k3, fIXα released after the cleavage at Arg145) was 6 µM.

Q: What about the Ki1 (k-3/k3, fIXα released after the cleavage at Arg145) [2] of the same substance?
A: The Ki1 (k-3/k3, fIXα released after the cleavage at Arg145) was 0.4 µM.

Q: Which stoichiometry N [7] does the source give for “recombinant factor XI zymogen with Arg184 replaced with Gly (fXI-Gly184) (natural protein)” here?
A: Its stoichiometry N is 2.

Q: Which Kd [8] does the source give for “recombinant wild type factor IX (fIXWT) (from UniProt P00740 47-461) (natural protein)” here?
A: Its Kd is 350 nM.

Q: “recombinant wild type factor XI zymogen (fXIWT) (natural protein)” was tested. Which stoichiometry N [9] did it give?
A: Its stoichiometry N is 2.
